Laboratory results published in PMC13079917 (Proceedings of the National Academy of Sciences of the …, 2026).

T1: J3 junctional peptide (Plasmodium falciparum (identical to 3D7 …))
T1 construct: also called junctional peptide (J3)
T1 chain: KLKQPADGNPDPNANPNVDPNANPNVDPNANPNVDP

B1: L9 Fab (Fab, V domains shown)
VH: QVKLVESGGGVVQPGRSLRLSCEASGFIFSTYGMHWVRQAPGKGLEWVAVIWFDGSNIYYADSVKGRFTISRDNSKNTVFMQMDSLRAEDTAVYYCHRNFYDGSGPFDYWGQGTLVTVSS
VL: DIQMTQSPSTLSASVGDRVTITCRASQFISRWLAWYQQKPGKAPKLLIYKASSLESGVPSRFSGSGSETHFTLTISSLQPDDVATYYCQEYTSYGRTFGQGTKVEIK
notes: source: for crystallization: ExpiCHO cells, purified (HiTrap Protein G HP, size exclusion chromatography)
B2: Monoclonal antibody L9 (human IgG) (antibody, V domains shown)
VH: QVKLVESGGGVVQPGRSLRLSCEASGFIFSTYGMHWVRQAPGKGLEWVAVIWFDGSNIYYADSVKGRFTISRDNSKNTVFMQMDSLRAEDTAVYYCHRNFYDGSGPFDYWGQGTLVTVSS
VL: DIQMTQSPSTLSASVGDRVTITCRASQFISRWLAWYQQKPGKAPKLLIYKASSLESGVPSRFSGSGSETHFTLTISSLQPDDVATYYCQEYTSYGRTFGQGTKVEIK

Experiments:
Settings in all cases: both partners purified
[1] = molecular target: T2, SES-2 (single epitope scaffold 2); experiment: SPR
T2 construct: also called SES-2 scaffold; source: FreeStyle 293F cells, transfected, purified (nickel column, Superdex 200 Increase gel filtration)

[2] = molecular target: TES-1 (triple-epitope scaffold 1) (synthetic de novo design (grafts PfCSP …)); experiment: KinExA (kinetic exclusion assay)
J3 junctional peptide = molecular target: T1, J3 junctional peptide; experiment: ELISA; plates coated with peptide at 2 ug/mL in PBS; antibodies diluted fourfold from 10 ug/mL; peroxidase secondary antibody

Row | Binder | Kd [1] [nM] | Kd [2] [nM] | binding result (J3 junctional peptide)
1 | B1 | 29 |  | 
2 | B2 |  | 0.085 | binds
